US20250154238A1 (YALE UNIVERSITY, published 2025)

Key:
[1] = molecular target: T1, recombinant human epiregulin containing the epidermal growth factor (EGF) domain (R&D Biosciences Cat … (human, UniProt O14944 63-108)); test: cell-based or functional assay
[2] = molecular target: T1, recombinant human epiregulin containing …; test: cell-based or functional assay; remark: listed apart in the source
[3] = molecular target: T1, recombinant human epiregulin containing …; test: cell-based or functional assay; remark: listed apart in the source
[4] = molecular target: T1, recombinant human epiregulin containing …; test: Octet bio-layer interferometry, recombinant human epiregulin immobilized

T1 sequence (O14944 63-108 limits assumed): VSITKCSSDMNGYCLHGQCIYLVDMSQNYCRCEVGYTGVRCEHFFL

B1: humanized epiregulin neutralizing antibody 1 (hEreg NAb1) (antibody, V domains shown)
VH: HLQLQESGPGLVKSSETLSLTCSVSGGSISSSGYYWGWIRQPPGKGLEWIGSFYYSGNTYYNPSLKSRVTISADTSKSQYSLKLSSVTAADTAVYYCARHPFNWNDHYHYMDVWGNGTTVTVSS
VL: DIQMTQSPSSLSASVGDSVTITCRASQSISNYLNWYQKKPGKAPKVLIYAASSLQSGVPSRFSGSGSGTDFTLTISSLQPEDFATYYCQQSYITSITFGQGTRLEIK
notes: The clone comes from hybridomas of Alloy mice (fully human variable regions) and represents wells M3, M4 and M5; also called humanized epiregulin antibody; M3
For B1, the “IC50 of inhibition of epiregulin-induced HFF proliferation (rhEreg 100 ng/ml)” value [1] was 0.1 to 0.3 µg/mL, the “IC50 (nM), calculated from HFF proliferation assays” value [2] was 1.8 nM and the “IC50 of inhibition of HFF proliferation induced by 100 ng/ml rhEreg (GFP fluorescence, CyQUANT, day 3)” value [3] was 0.27 µg/mL. The Kd [4] was 0.038 nM.
